Test: yeast display, Sf9 membrane polyspecificity reagent, FACS + sequencing; frameworks hold sequencing errors
How it was run: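 A nanobody's polyreactivity label depends on the gate it was sorted from. Yeast display cells were stained with 10% biotinylated, detergent-solubilized Sf9 membrane reagent for 1 hour at 4 °C, enriched on streptavidin microbeads and sorted by FACS. The low and high (top ~1%) gates were set on anti-HA fluorescence for expression and streptavidin fluorescence for reagent binding.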

Row | Sequence | polyreactivity (PSR sort gate)
1 | QVQLVESGGGLVQAGGSLRLSCAASGRTFSYNAMGWYRQAPGKERELVAVISASGGRTNYADSVKGRFTISRDNAKNTVYLQMNSLKPEDTAVYYCNALFGLGVKGYDYWGQGTQVTVSS | low polyreactivity
2 | QVQLVESGGGLVQAGGSLRLSCAASGRTFSYNTMGWYRQAPGKERELVASISGSGGRTYYADSVKGRFTISRDNAKNTVYLQMNSLKPEDTAVYYCAARRYSRDYDYWGQGTQVTVSS | high polyreactivity
3 | QVQLVESGGGLVQAGGSLRLSCAASGRTFSYYAMGLYRQAPGKEREFVAAITWRGSSTYYADSVKGRFTISRDNAKNTVYLQMNSLKPEDTAVYYCNARATNVIWGRYDYWGQGTQVTVSS | high polyreactivity
4 | QVQLVESGGGLVQAGGSLRLSCAASGRTFSYYAMGWYIQAPGKERELVAAITWSGASTYYADSVKGRFTISRDNAKNTVYLQMNSLKPEDTAVYYCNAGWDSGIVQSDETVYKYDYWGQGTQVTVSS | low polyreactivity
5 | QVQLVESGGGLVQAGGSLRLSCAASGRTFSYYAMGWYRQAPGKERELVAAISQRGGSTYYADSVKGRFTISRDNAKNTVYLQMNSLKPEDTAVYYCAVLVSRYRYRVLDDYWGQGTQVTVSS | high polyreactivity
6 | QVQLVESGGGLVQAGGSLRLSCAASGRTFSYYAMGWYRQAPGKERELVAAISRAGRTNYADSVKGRFTISRDNAKNTVYLQMHSLKPEDTAVYYCAADLAYGRPFVSYRTRDWGQGTQVTVSS | high polyreactivity
7 | QVQLVESGGGLVQAGGSLRLSCAASGRTFSYYAMGWYRQAPGKERELVAAITSRGSSTYYADSVKGRFTISRDNAKNTVYLQMNSLKPEDTAVYYCAKVRPYLDTNEYYYWGQGTQVTVSS | high polyreactivity
8 | QVQLVESGGGLVQAGGSLRLSCAASGRTFSYYAMGWYRQAPGKERELVATIRFSGGGTYYADSVKGRFTISRDNAKNTVYLQMNSLKPEDTAVYYCNADSIDPFLYDYWGQGTQVTVSS | low polyreactivity
9 | QVQLVESGGGLVQAGGSLRLSCAASGRTFSYYTMVWYRQAPGKERELVARISNRGTNTYYADSVKGRFTISRDNAKNTVYLQMNSLKPEDTAVYYCAKYYYTSIVGYDSWGQGSQVTVSS | low polyreactivity
10 | QVQLVESGGGLVQAGGSLRLSCAASGRTFTANAMGWYRQAPGKERELVAGITSRGGGTYYADSVKGRFTISRDNAKNTVYLQMNSLKPEDTAVYYCAAPYNGGGVHSYWEYDYWGQGTQVSVSS | high polyreactivity
11 | QVQLVESGGGLVQAGGSLRLSCAASGRTFTAYTMGWYRQAPGKERELVASITWSGGSTYYADSVKGRFTISRDNAKNTVYLQMNSLKPEDTAVYYCATAFDYGQFQLSSEFNYWGQGTQVTVSS | low polyreactivity
12 | QVQLVESGGGLVQAGGSLRLSCAASGRTFTDNAMGWYRQAPGKERELVAAISRRGGSTYYADSVKGRFTISRDNAKNTVYLQMNSLKPEVTAVYYCNTDEIAGGFPYRYYLYYGYDYWGQGTQVTVSS | low polyreactivity
13 | QVQLVESGGGLVQAGGSLRLSCAASGRTFTEYAMGWYRQAPGKERELVAGIDSGSGSTYYADSVKGRFTISRDNAKNTVYLQMNSLKPEDTAVYYCAADHAYYRYDYWGQGTQVTVSS | low polyreactivity
14 | QVQLVESGGGLVQAGGSLRLSCAASGRTFTGNAMGWYRQAPGKERELVAAISFSGASTYYADSVKGRFTISRDNAKNTVYLQMNSLKPEDTAVYYCNADSRYRSFDYWGQGTQVTVSS | high polyreactivity
15 | QVQLVESGGGLVQAGGSLRLSCAASGRTFTGNAMGWYRQAPGKERELVAAISQRGGRTNYADSVKGRFTISRDNAKNTVYLQMHSLKPEDTAVYYCAADQSYPKRLPSFEYWGQGTQVTVSS | low polyreactivity
16 | QVQLVESGGGLVQAGGSLRLSCAASGRTFTGNVMGWYRQAPGKERELVAAISRRGGITYYADSVKGRFTISRDNAKNTVYLQMNSLKPEDTAVYYCDAYSWRRQGDHYDYWGQGTQVTVSS | high polyreactivity
17 | QVQLVESGGGLVQAGGSLRLSCAASGRTFTGYAMGWYRQAPGKERELVAAISASGGSTYYADSVKGRFTISRDNAKNTVYLQMNSLKPEDTAVYYCAAESWYSVLWEEGYDYWGQGTQVTVSS | low polyreactivity
